# B1: 77G10 (antibody, V domains shown)
# VH: QSLEESGGRLVTPGTPLTLTCTASGFSLSSYYMSWVRQAPGKGLEYIGIISSSGSTDYASWAKGRFTISKTSTTVDLKITSPTTEDTATYFCARGWLDLWGQGTLVTVSS
# VL: AAVLTQTPSPVSAAVGGTVSISCQSSKSVYNNNWLSWLQQKPGQPPKLLIHGASTLASGVPSRFKGSGSGTQFTLTISDVQCDDAATYYCAGGYSSSTDNAFGGGTEVVVK
# notes: also called recombinant anti-DXd mAb 77G10
# B2: 29D2 (antibody, V domains shown)
# VH: QSVEESGGRLVTPGTPLTLTCTASGFSLSSYAMNWVRQAPGKGLEYIGIIYDSGTTYYASWAKGRFTISKTSTTVDLKITSPTTEDTATYFCARAALDIWGPGTLVTVSS
# VL: AAVLTQTPSPVSAAVGGTVSISCQASKSVYNNNWLSWVQQTPGQPPKLLIYGASTLASGVPSRFKGSGSGTQFTLTISDVQCDDAATYYCAGGYGSSSDNAFGGGTEVVVE
# notes: also called recombinant anti-DXd mAb 29D2
# B3: 28C8 (antibody, V domains shown)
# VH: QSVEESGGRLVTPGTPLTLTCTVSGFSLSSYAMNWVRQAPGKGLEYIGIIYDSGSTYYANWAKGRFTISKTSTTVDLKITSPTTEDTATYFCARGYLDIWGPGTLVTVSS
# VL: AAVLTQTPSPVSAAVGGTVSISCQSSKSVYNNKWLSWLQQKPGQPPKLLIYGASTLASGVPSRFKGSGSGTEFTLTISDVQCDDAATYYCAGGYSISSDNAFGGGTEVVVK
# notes: also called recombinant anti-DXd mAb 28C8
# B4: 35D6 (antibody, V domains shown)
# VH: QSVEESGGRLVTPGTPLTLTCTVSGFSLSSHWMSWVRQAPGKGLEWIGIISSSGSTDYVSWAKGRFTISKTSTTVDLKITSPTTEDTATYFCARDLGYSTNIWGPGTLVTVSL
# VL: AYDMTQTPASVEVTVGGTVTIKCQASQSIGSYLAWYQQKPGQRPKLLIYDASTLASGVSSRFKGSGSGTQFTLTISGVECADAATYYCQQGYSSSGVDNAFGGGTEVVVK
# notes: also called recombinant anti-DXd mAb 35D6
# B5: 76G4 (antibody, V domains shown)
# VH: QSVEESGGRLVTPGTPLTLTCTASGFSLSSYYMFWVRQAPGKGLEYIGYIGDGGYTSYATWAKGRFTISKTSSTTVDLKITSPTTEDTATYFCARDGFTSGSIWGPGTLVTVSS
# VL: AAVLTQTPSPVSTAVGGTVTISCQSSKNVYNNNWLSWFQQKPGQPPKLLIYGTSTLASGVPSRFKGSGSGTQFTLTISDVQCDDAATYYCAGGYSSSSDNGFGAGTEVVVK
# notes: also called recombinant anti-DXd mAb 76G4
# Biological target: T1, DXd-conjugated antigen
# T1 construct: also called DXd conjugated antigens
# Experiment: competitive ELISA: coated DXd-conjugated antigen, antibody titrated with 1 ug/ml free biotin-DXd (small molecule) as competitor, streptavidin-HRP detection
row,Binder,IC50
1,B1,0.953 ng/mL
2,B2,1.26 ng/mL
3,B3,1.58 ng/mL
4,B4,5.24 ng/mL
5,B5,0.753 ng/mL

# Reference: US20250026859A1 (BEIGENE, published 2025)
